Consider two molecules from patent US20250304718A1, “HER2 SINGLE DOMAIN ANTIBODY AND USES THEREOF” (Institut Curie, priority 2024, published 2025).

The subject of one experiment is SKBR3 cells. As to the kind of experiment: FACS binding of sdAb on SKBR3 cells. The following applies: SKBR3 overexpresses HER2 on its surface; data not shown. How it is done: (§1) From inventors humanized sdAb libraries, a phage display subtraction selection system was developed to identify sdAbs that selectively detect the surface of breast tumor cells. The SKBR3 target cell line was used because it overexpresses the HER2 protein on its surface, while the MCF10A cell line, derived from non-cancerous and HER2-negative mammary gland cells, was used to pre-adsorb the libraries. After 3 successive cycles of selection on these cell lines, sdAb clones were analyzed by flow cytometry (FACS) for their binding capacity on SKBR3 cells and MCF10A cells.
(§2) A human VH anti-HER2 was selected for further experiments.

The test system of the next experiment is MCF10A cells. As to the kind of experiment: FACS binding of sdAb on MCF10A cells. The following applies: MCF10A non-cancerous, HER2-negative; data not shown. How it is done:
as §1, §2
In general terms: In flow cytometry, cells or beads pass a laser one at a time.

For experiment [1], the target named is T1, Her2 recombinant ectodomain fused to a Rabbit Fc domain (Homo sapiens, UniProt P04626).
T1 construct: validated by ELISA on Her2 recombinant ectodomain fused to a Rabbit Fc domain; Rabbit Fc domain
As to the kind of experiment: ELISA on Her2 recombinant ectodomain. In kind it is binding. The settings on record: data not shown. From the text: The anti-HER2 sdAb was afterward validated by ELISA on Her2 recombinant ectodomain fused to a Rabbit Fc domain (data not shown).

Experiment [2] deals with Jurkat-derived clone bearing a NFAT-YFP gene reporter. Put plainly: Reporter cell system for CAR-T cell activity (FACS). The following applies: sdAb in second generation CAR (CD8 TM, 4-1BB, CD3z). In kind it is cell-based. The source says: The anti-HER2 sdAb of the invention was also validated for use in CAR-T format. The model of CAR chosen is the one used to treat diffuse lymphomas (Linguanti F, Abenavoli E M, Berti V, Lopci E. Metabolic Imaging in B-Cell Lymphomas during CAR-T Cell Therapy. Cancers (Basel). 2022 Sep. 27; 14(19):4700. doi: 10.3390/cancers14194700. PMID: 36230629; PMCID: PMC9562671). This anti-lymphoma CAR-T therapy called “second generation” comprises the transmembrane domain of CD8, a costimulation domain from 4-1BB and the CD3z signaling domain. In the case of Kymriah® targeting B lymphocytes, the binding module is an anti-CD19 scFv. In the construction of the invention, the anti-CD19 scFv was replaced by the anti-Her2 sdAb of the invention.
The inventors developed a reporter cell system allowing to identify CAR-T cell activity. It is based on a Jurkat-derived clone bearing a NFAT-YFP gene reporter activated by TCR clustering (Blanchard N. et al, The Journal of Immunology, 2004).

Experiment [3] addresses T2, Her2 recombinant ectodomain fused to a Rabbit Fc domain (human; rabbit, UniProt P04626 23-652).
T2 construct: also called Her2 ectodomain-Rabbit Fc; not shown: Rabbit Fc domain
As to the kind of experiment: ELISA on recombinant Her2 ectodomain-Rabbit Fc.

Experiment [4] concerns the target T3, HER2 (Receptor tyrosine-protein kinase erbB-2) on the surface of SKBR3 cells (human, UniProt P04626 23-1255).
T3 construct: Endogenous HER2 overexpressed on the SKBR3 breast tumor cell line; also called CD340
Put plainly: flow cytometry (FACS) on SKBR3 cells overexpressing HER2; MCF10A HER2-negative cells as control. How it is done: as §1

B1: anti-HER2 sdAb: fully humanized anti-HER2 VH single domain antibody, SEQ ID NO:2, CDRs SEQ ID NO:7-9 (protein)
VHH: MAEVQLVESGGGLVQPGGSLRLSCAASGAFYKAYNMGWVRQAPGKGLEWVSAISATQGKWVYYADSVKGRFTISRDNSKNTVYLQMNSLRAEDTAVYYCAKLPISKKALYRGQGTLVTVSS
With B1, in the experiment on SKBR3 cells, the “recognition on SKBR3 cells in FACS” value is listed as “specific recognition”. The “recognition on MCF10A cells in FACS” value with MCF10A cells was “not on MCF10A cells”. In addition, the “validation by ELISA” value in experiment [1] is listed as “validated”. Moreover, the “activation detected by FACS” value in experiment [2] is on record as “specific activation”.

B2: humanized anti-HER2 single domain antibody (sdAb) of the invention (VHH)
VHH: EVQLVESGGGLVQPGGSLRLSCAASGAFYKAYNMGWVRQAPGKGLEWVSAISATQGKWVYYADSVKGRFTISRDNSKNTVYLQMNSLRAEDTAVYYCAKLPISKKALYRGQGTLVTVSS
notes: Synthetic humanized/human VH single domain antibody (not a camelid VHH), selected by phage display on SKBR3 cells; also called VH anti-Her2; human VH anti-HER2
In the case of B2, the binding result in experiment [3] and in experiment [4] was “binds” throughout.
